Reference: the supplement of paper PMC10567573

B1: KRT33B (parent)
chain: PAVDLNQVLNETRNQYEALVETNR

Variants of: B1
Assay: protein stability index of a GFP-peptide fusion (GPS, HEK-293T) (PSI 1-6); higher = more stable
Details: c terminus: a fixed tail appended
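Further: lentivirally expressed fusions sorted by FACS into six bins by GFP to DsRed ratio, PSI derived from sequencing read proportions per bin multiplied by bin number.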

Protein stability index of substitutions, site by site:
D4: L 3.55 | E 3.86 | H 4.22 | C 3.88 | F 2.82 | K 4 | G 4.02 | W 2.64 | Q 4.31 | Y 3.44 | N 4.46 | P 3.74 | T 3.08 | S 2.74
N10: E 2.09 | L 2.56 | K 2.74 | T 2.67 | S 3.31 | C 3.59 | D 3.3 | M 2.23 | R 2.76 | Y 2.47 | H 3.74 | G 4.34 | Q 2.58
Q15: T 4.22 | V 3.82 | G 4.45 | E 4.61 | R 4.37 | M 1.6 | Y 3.23 | W 2.86 | N 4.38 | D 4.33 | C 3.87 | L 2.04 | H 3.95 | K 4.06 | A 3.84 | S 3.95
A2: G 3.95 | Y 2.02 | E 2.26 | S 3.23 | W 1.59 | P 3.14 | H 3.93 | Q 3.11 | D 4.82 | K 3.87 | V 3.11 | R 3.57 | F 2.39 | C 2.87 | I 2.84
T22: D 4.8 | N 4.5 | S 4.43 | V 1.57 | G 4.73 | E 4.05 | K 3.7 | A 3.94 | W 3.88 | Y 4.57 | H 3.98 | Q 3.94 | F 3.61 | C 3.78
Q7: C 3.57 | G 4.59 | A 3.27 | P 4.78 | L 4.06 | V 3.86 | I 3.55 | H 4.38 | D 3.73 | F 3.79 | W 4.22 | S 4.01 | T 2.97 | N 4.33 | Y 3.83
N23: M 3.29 | K 4.54 | Q 4.43 | W 3.36 | P 4.54 | R 4.31 | H 4.35 | L 3.06 | I 3.24 | S 4.25 | V 3.27 | D 5.06 | A 4.3
V8: N 4.83 | G 4.91 | C 3.71 | K 4.56 | M 2.66 | S 4.43 | D 4.77 | T 4.41 | E 4.7 | L 1.45
L9: H 4.2 | K 5.09 | W 4.32 | I 3.55 | T 4.61 | Y 4.53 | D 4.52 | F 4.25 | P 4.72 | G 4.76 | E 4.93 | S 4.96 | Q 4.24 | M 4.13 | V 4.65 | A 5.16
N6: L 1.71 | T 3.43 | M 1.34 | P 4.33 | S 3.54 | V 2.43 | F 2.31 | K 3.27 | I 2.05 | W 1.82 | Q 2.83 | D 2.8 | G 4.3 | E 1.97 | H 2.97 | Y 2.64 | R 3.13
R13: S 4.8 | N 5.01 | P 5.18 | E 4.86 | V 4.15 | I 3.32 | T 4.59 | K 3.03 | Y 3.69 | L 3.46 | C 4.38
L19: I 4.11 | K 4.95 | E 5.19 | R 4.29 | Q 5.1 | T 4.7 | F 4.11 | N 4.87 | D 5.42 | Y 4.61 | W 4.25 | C 4.53 | A 5.03
